Molecular target: SARS-CoV-2 Omicron BA.4/BA.5 RBD (SARS-CoV-2 Omicron BA.4/BA.5, strain)
Experiment: SPR
Settings: both partners purified

B1: M8a-6 IgG (antibody, V domains shown)
VH: QVQLQQPGTELVMPGASVKLSCKTSGYTFTHYWMHWVKQRPGEGLEWIGEIAPSDNYVKYNQKFKGKSTLSVDRSSSTAYMQLSSLTSEDSAVYFCARPDNSGYPVYFDYWGQGTSLTVSS
VL: DIVMTQSQKFMSTSLGDRVSISCKASQDVGTTVAWYQQKPGQSPKLLIYWASTRHTGVPDRFTGTGSGTDYTLTISSVAAEDLALYYCQQHYNTPYTFGGGTKLEIE
notes: copies: 2 + 2
Kd: 290 nM

B2: C118 IgG (antibody, V domains shown)
VH: QVQLVESGGGVVQPGRSLRLSCAASGFTFSNYAMHWVRQAPGKGLEWVAVISYDGSNKYYADSVKGRFTISRDNSKNTLYLQMNSLRAEDTAIYYCASGYTGYDYFVRGDYYGLDVWGQGTTVTVSS
VL: QPVLTQSPSASASLGASVKLTCTLSSGHSSYAIAWHQQQPEKGPRYLMKLNTDGSHSKGDGIPDRFSGSSSGAERYLTISSLQSEDEADYYCQTWGTGILVFGGGTKLTVL
notes: copies: 2 + 2
Kd: 28 nM | koff: 0.0039 s⁻¹ | kon: 140000 M⁻¹ s⁻¹

B3: M8a-3 IgG (antibody, V domains shown)
VH: QVQLQQPGAELVLPGASVKLSCKASGYTFTNYWMHWVKQRPGHGLEWIGEIDPFDTYIKINQKFKGKSTLTVDTSSSTAYMQLSSLTSEDSAVYYCARPDSSGYPVYFDYWGQGTTLTVSS
VL: DIVMTQSHKFMSTSVGDRVSITCKASQDVGTYIAWYQQKPGQSPKLLIYWASTRHTGVPDRFTGSGSGTNYTLTISSVQAEDLALYHCQQHYSTPYTFGGGTKLEIK
notes: copies: 2 + 2
Kd: 2.2 nM | koff: 0.00045 s⁻¹ | kon: 210000 M⁻¹ s⁻¹

Reference: paper PMC9606073 (Immunity, 2022)
